System: Equine melanoma tumors
Experiment: RNA-Seq transcriptomic analysis (DEGs, EdgeR) of treated equine melanoma tumors excised 6 h and 12 h after injection
Type: in vivo, Equus caballus
Experimental: Equine melanoma tumors were used in experiments with the administration of the compound of the invention, for transcriptomic analysis at different points in time. This translational experiment was carried out at Sao Joaquim Farm (SP) and the samples were transported to the Instituto Butantan, in the city of Sao Paulo. The experiment was designed with non-treated control samples at 0 h (PBS) and the treated tumors were excised 6 h and 12 h after the injection of 1 mg of polypeptide per kg of tumor. For each time point, two tumors were removed from three different animals, producing six tumors per time point. All 18 cDNA libraries were prepared following Illumina's TruSeq® RNA Preparation Kit Kits v2 protocol, and then sequenced using HiSeq 1500 Illumina technology, generating 2×100 bp chain-specific paired readings. The raw sequencing readings had the contaminants removed with bowtie2 2.2.5, and then trimmomatic was used for quality control of the sequences, to cut and remove readings with regions of low complexity and enriched with homopolymers, poly-A/T/N tails, low quality adapter strings and bases, with the fastq-mcf 1.04.662 software. The readings were filtered if more than 90% of the readings correspond to regions of homopolymer or of low complexity. Subsequently, cut if the average quality score was less than 25 in a window size equal to 15. After cutting, all readings less than 40 bp were discarded.
Total RNA was isolated from cells grown with Trizol (Ambion, Life Technologies) and purified with a Mini RNAspin kit (GE Healthcare) according to the manufacturer's instructions, with prolonged treatment with DNase I for 1 h.
RNA quality was assessed with an Agilent 2100 Bioanalyzer RNA Pico assay. RNA was quantified using the Rib-Green Quant-iT and RNA reagent kit (Invitrogen, Life Technologies). The messenger RNA (mRNA) was isolated and used to prepare the complementary DNA (cDNA) libraries following the instructions of the TruSeq RNA Sample Prep Kit V2 (Illumina, San Diego, Calif.). Briefly, the mRNA was isolated with oligo-dT and purified. Then, the mRNA was fragmented by heating to 94° C. (4 min) in fragmentation buffer. The double-stranded cDNA was synthesized, repaired at the end and tail A. The sequencing adapters were then attached to the cDNA fragments, according to the manufacturer's protocol. The cDNA fragments were enriched after 15 rounds of PCR amplification. The quality control of the library was assessed by size distribution of the cDNA libraries measured using 2100 Bioanalyzer with DNA1000 assay (Agilent Technologies) and a StepOnePlus real-time PCR system from ABI were used to quantify the sample library before sequencing. The cDNA library was sequenced on the Illumina HiSeq 1500 System, in a final flow cell paired with Rapid in a 200 pair strategy of 2-101 bp pairing strategy.
The in-silico analysis of RNA-Seq comprises several quality steps and transcriptomic quantification algorithms that are understood in the present invention as “pipeline”. (FIG. 19). The quality check was performed using FastQC3. Hisat214 was used to align readings against the horse's reference genome (Equus caballus) (annotation version 89). To map and quantify transcriptions, the feature Counts was used, resulting in a table of genetic IDs versus samples with raw reading counts. Then, differentially expressed genes (DEGs) were calculated using the EdgeR package. Genes with less than one count per million (CPM) were filtered out. The DEGs were calculated by crossing the sample values of a) 6 h after treatment (6 h)×control (0 h); b) 12 h after treatment (12 h)×control; and also, c) 12 h×6 h. DEGs are defined as an absolute value of log 2 fold change between two groups (LFC)>1 and false discovery rate (FDR)<0.05. […]

[1] = in vivo administration, RNA-Seq
[2] = treated equine melanoma tumors, RNA-Seq

B1: Amblyomin-X: recombinant Kunitz type protein identified in a cDNA library of Amblyomma sculptum tick salivary glands (protein)
chain: MRQLAVLALVIFTGMCVESQSANSKAVCNLPKLAGDETCSNKTEIRWYYNGTACEAFIFKGCGGNDNNFDRVDDCQRLCEEQTHFHFESPKLICFKVQDYWILNDIMKKNLTGISLKSEEEDADSGEID
modifications: Amblyomin-X
notes: recombinant Kunitz type protein identified in a cDNA library of Amblyomma sculptum tick salivary glands
logFC6, gene IFIH1 (RNA-seq, 6 h after treatment): 0.851 | logFC6, gene IFIT1 (RNA-seq, 6 h after treatment): 2.574 | logFC6, gene IL1B (RNA-seq, 6 h after treatment): 4.309 | logFC6, gene IL1RN (RNA-seq, 6 h after treatment): 2.823 | logFC6, gene IL13RA1 (RNA-seq, 6 h after treatment): 1.408 | logFC6, gene IRF9 (RNA-seq, 6 h after treatment): 1.136 | logFC6, gene ITGA1 (RNA-seq, 6 h after treatment): 1.348 | logFC6, gene MYH1 (RNA-seq, 6 h after treatment): −8.4 | logFC6, gene MYH3 (RNA-seq, 6 h after treatment): −3.643 | logFC6, gene MYL2 (RNA-seq, 6 h after treatment): −8.697 | logFC6, gene MYLPF (RNA-seq, 6 h after treatment): −5.872 | logFC6, gene NTNG1 (RNA-seq, 6 h after treatment): −1.959 | logFC6, gene OAS2 (RNA-seq, 6 h after treatment): 1.463 | logFC6, gene PARP9 (RNA-seq, 6 h after treatment): 1.816 | logFC6, gene PER1 (RNA-seq, 6 h after treatment): −1.474 | logFC6, gene PIK3R6 (RNA-seq, 6 h after treatment): −1.277 | logFC6, gene RUNX1 (RNA-seq, 6 h after treatment): 1.723 | logFC6, gene SAA1 (RNA-seq, 6 h after treatment): 3.456 | logFC6, gene SELP (RNA-seq, 6 h after treatment): 2.596 | logFC6, gene SLPI (RNA-seq, 6 h after treatment): 3.009 | logFC6, gene SOCS3 (RNA-seq, 6 h after treatment): 2.979 | logFC6, gene STAT1 (RNA-seq, 6 h after treatment): 1.085 | logFC6, gene TAT (RNA-seq, 6 h after treatment): 5.292 | logFC6, gene TEAD4 (RNA-seq, 6 h after treatment): 1.685 | logFC6, gene THBS1 (RNA-seq, 6 h after treatment): 1.819 | logFC6, gene TLR2 (RNA-seq, 6 h after treatment): 1.5586 | logFC6, gene TREM1 (RNA-seq, 6 h after treatment): 5.551 | logFC12, gene ACTN1 (RNA-seq, 12 h after treatment): 1.006 | logFC12, gene BCL3 (RNA-seq, 12 h after treatment): 1.709 | logFC12, gene BIRC3 (RNA-seq, 12 h after treatment): 0.9146 | logFC12, gene CAD (RNA-seq, 12 h after treatment): 1.028 | logFC12, gene CCL2 (RNA-seq, 12 h after treatment): 3.517 | logFC12, gene CDO1 (RNA-seq, 12 h after treatment): −2.408 | logFC12, gene CTSL (RNA-seq, 12 h after treatment): 1.385 | logFC12, gene CXCL6 (RNA-seq, 12 h after treatment): 3.417 | logFC12, gene DDX58 (RNA-seq, 12 h after treatment): 1.76 | logFC12, gene F12 (RNA-seq, 12 h after treatment): 3.104 | logFC12, gene FOSL1 (RNA-seq, 12 h after treatment): 4.028 | logFC12, gene FSCN1 (RNA-seq, 12 h after treatment): 1.831 | logFC12, gene HMOX1 (RNA-seq, 12 h after treatment): 1.117 | logFC12, gene HSPA6 (RNA-seq, 12 h after treatment): 4.55 | logFC12, gene IFI35 (RNA-seq, 12 h after treatment): 1.639 | logFC12, gene IFIH1 (RNA-seq, 12 h after treatment): 1.823 | logFC12, gene IFIT1 (RNA-seq, 12 h after treatment): 2.655 | logFC12, gene IL1B (RNA-seq, 12 h after treatment): 3.152 | logFC12, gene IL1RN (RNA-seq, 12 h after treatment): 2.805 | logFC12, gene IL13RA1 (RNA-seq, 12 h after treatment): 1.28 | logFC12, gene IRF9 (RNA-seq, 12 h after treatment): 1.462 | logFC12, gene ITGA1 (RNA-seq, 12 h after treatment): 1.094 | logFC12, gene MYH1 (RNA-seq, 12 h after treatment): −8.31 | logFC12, gene MYH3 (RNA-seq, 12 h after treatment): 3.004 | logFC12, gene MYL2 (RNA-seq, 12 h after treatment): −7.917 | logFC12, gene MYLPF (RNA-seq, 12 h after treatment): −5.428 | logFC12, gene NTNG1 (RNA-seq, 12 h after treatment): −2.943 | logFC12, gene OAS2 (RNA-seq, 12 h after treatment): 2.491 | logFC12, gene PARP9 (RNA-seq, 12 h after treatment): 2.109 | logFC12, gene PER1 (RNA-seq, 12 h after treatment): −1.139 | logFC12, gene PIK3R6 (RNA-seq, 12 h after treatment): −1.356 | logFC12, gene RUNX1 (RNA-seq, 12 h after treatment): 1.443 | logFC12, gene SAA1 (RNA-seq, 12 h after treatment): 3.902 | logFC12, gene SELP (RNA-seq, 12 h after treatment): 2.395 | logFC12, gene SLPI (RNA-seq, 12 h after treatment): 3.051 | logFC12, gene SOCS3 (RNA-seq, 12 h after treatment): 2.423 | logFC12, gene STAT1 (RNA-seq, 12 h after treatment): 1.267 | logFC12, gene TAT (RNA-seq, 12 h after treatment): 5.521 | logFC12, gene TEAD4 (RNA-seq, 12 h after treatment): 1.949 | logFC12, gene THBS1 (RNA-seq, 12 h after treatment): 0.8749 | logFC12, gene TLR2 (RNA-seq, 12 h after treatment): 1.839 | logFC12, gene TREM1 (RNA-seq, 12 h after treatment): 5.559 | LFC SELE (6 h×0 h) (e-selectin (SELE) gene, log2 fold change, 6 h after treatment vs control 0 h, RNA-Seq): 2.33 | LFC SELE (12 h×0 h) (e-selectin (SELE) gene, log2 fold change, 12 h after treatment vs control 0 h, RNA-Seq): 1.78 | logFC6 BATF3 (gene BATF3, RNA-seq, 6 hours after treatment): 3.137 | logFC12 BATF3 (gene BATF3, RNA-seq, 12 hours after treatment): 2.91 | logFC6 CAV3 (gene CAV3, RNA-seq, 6 hours after treatment): −3.0363 | logFC12 CAV3 (gene CAV3, RNA-seq, 12 hours after treatment): −6.6813 | logFC6 CCR7 (gene CCR7, RNA-seq, 6 hours after treatment): 2.652 | logFC12 CCR7 (gene CCR7, RNA-seq, 12 hours after treatment): 2.359 | logFC6 CDH15 (gene CDH15, RNA-seq, 6 hours after treatment): −2.616 | logFC12 CDH15 (gene CDH15, RNA-seq, 12 hours after treatment): −1.702 | logFC6 EIF2AK2 (gene EIF2AK2, RNA-seq, 6 hours after treatment): 2.4 | logFC12 EIF2AK2 (gene EIF2AK2, RNA-seq, 12 hours after treatment): 2.959 | logFC6 ETV6 (gene ETV6, RNA-seq, 6 hours after treatment): 1.795 | logFC12 ETV6 (gene ETV6, RNA-seq, 12 hours after treatment): 1.871 | logFC6 IL7R (gene IL7R, RNA-seq, 6 hours after treatment): 2.532 | logFC12 IL7R (gene IL7R, RNA-seq, 12 hours after treatment): 2.227 | logFC6 IL18RAP (gene IL18RAP, RNA-seq, 6 hours after treatment): 2.817 | logFC12 IL18RAP (gene IL18RAP, RNA-seq, 12 hours after treatment): 2.593 | logFC6 MYLK2 (gene MYLK2, RNA-seq, 6 hours after treatment): −5.152 | logFC12 MYLK2 (gene MYLK2, RNA-seq, 12 hours after treatment): −5.672 | logFC6 NECTIN3 (gene NECTIN3, RNA-seq, 6 hours after treatment): 1.287 | logFC12 NECTIN3 (gene NECTIN3, RNA-seq, 12 hours after treatment): 1.113 | logFC6 NLRC4 (gene NLRC4, RNA-seq, 6 hours after treatment): 5.503 | logFC12 NLRC4 (gene NLRC4, RNA-seq, 12 hours after treatment): 5.687 | logFC6 NLRP12 (gene NLRP12, RNA-seq, 6 hours after treatment): 3.4 | logFC12 NLRP12 (gene NLRP12, RNA-seq, 12 hours after treatment): 2.297 | logFC6 OAS3 (gene OAS3, RNA-seq, 6 hours after treatment): 1.716 | logFC12 OAS3 (gene OAS3, RNA-seq, 12 hours after treatment): 2.112 | logFC6 PRKCQ (gene PRKCQ, RNA-seq, 6 hours after treatment): −1.531 | logFC12 PRKCQ (gene PRKCQ, RNA-seq, 12 hours after treatment): −3.021 | DEG modulation of ACTA1 and ACTN2 [1]: high negative regulation | DEG modulation of ACTN1 and ACTR3 [1]: positive regulation | DEG modulation of TUBB and TUBB6 (Tubulin family) [1]: positive regulation | expression of Interferons (type 1 interferon, IFN alpha and IFN beta) [2]: does not lead to the detectable expression | expression of the NOXA gene (PMAIP1) [2]: did not induce the detectable expression

From patent US12329806B2, “Compound for modulating rlr, tlr, oas and/or oncostatin m pathways, use thereof for preparing a medicine, composition, method for modulating said pathways and method of treatment” (Instituto Butantan, priority 2018, dated 2025)
